Assay results taken from publication PMC2858704.

These sequences were tested against T1, PefR (Gbs1402) (Streptococcus agalactiae NEM316) (UniProt Q8E4J9) (assay: EMSA). Conditions: EMSA: 5% glycerol, 20 mM Tris-HCl pH 8, 50 mM KCl, 0.2 mM MgCl2, 1 mM EDTA, 0.2 mM DTT, 0.3 uM BSA, 15 ul, 37 C 20 min; 8% PAGE in 1x TBE, ethidium bromide ….
T1 sequence: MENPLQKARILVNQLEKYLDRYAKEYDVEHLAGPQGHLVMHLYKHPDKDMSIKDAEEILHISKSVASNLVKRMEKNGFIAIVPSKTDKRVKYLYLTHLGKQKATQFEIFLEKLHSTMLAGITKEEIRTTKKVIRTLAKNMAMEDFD

Sequence	binding
ATTTGTATTTTACTATCATTTACATTAAAAATCAATATAAATTTATAATTAAAAATATAAAAAGCGAACATATATTTTTAATATTAAAAAGTAAGCGAAATCATTTTTTATTTGACGAATGATAGGTTTTTTTTAGAAATATTAATGTAAAAATAGTTCTCACGGTAACTTTTAATTGACAATTAATAAAGGTTGTTTTAAAATAGTTCTCACGATAACTATTAAAGGAGTATTATTATGGAGAATC (double strand) [pefRCD promoter fragment (248 bp)]	binds
CTTGTTGAGCCGTTGACAACGAAATGTTAAAGCTATTCATCAAAGTTGGGATAGCCGTTCCCAAACTTGTCTGATTTAACACCCCTGCAAATGTAGCAATCAACAATAAGGTGATC (double strand) [control pefA internal fragment (116 bp)]	no binding
GCGTAGAAGTCATTAAATGGAGAACGCTTTATTAGGAAAAATAGTGGGGAGATATTTTAGAAAAAGGAAATAATGATGTTTTGAAAAAAATAGTTTCTATGAGAATCTTTTTCTTGACAATAAAATTTAGCTATTATAAAATAGTTCTCACGATAACTAAAATAATGATTTTTTCAGAAAATAATATTATTTATTGATTAAAAAATCAAAAAATAACCTTATAAGACCTATTTGTTATTCTTAAAAGATATTAGTTAAAATCAGAAATAGAGATTGGAGATA (double strand) [pefAB promoter fragment (281 bp)]	binds
